From patent publication US20200207850A1 (MacroGenics, published 2020)
Read-outs that look alike come from different tables or passages of the source.

T1: 5T4 on JIMT-1 target cells (UniProt Q13641 32-420, limits assumed)
T1 sequence (looked up): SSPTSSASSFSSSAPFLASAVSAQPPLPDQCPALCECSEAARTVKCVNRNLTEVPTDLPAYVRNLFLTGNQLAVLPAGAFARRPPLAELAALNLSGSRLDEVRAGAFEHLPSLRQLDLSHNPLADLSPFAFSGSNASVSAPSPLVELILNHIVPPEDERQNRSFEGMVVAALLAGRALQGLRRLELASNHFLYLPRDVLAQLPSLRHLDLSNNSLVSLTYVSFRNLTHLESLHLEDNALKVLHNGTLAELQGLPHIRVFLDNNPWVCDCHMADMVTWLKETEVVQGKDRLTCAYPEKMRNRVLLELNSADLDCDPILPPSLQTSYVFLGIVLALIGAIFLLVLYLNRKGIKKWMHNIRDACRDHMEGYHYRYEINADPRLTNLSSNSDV

B1: DART molecule having the CD3 mAb 2 Fast Binding Domain (bispecific antibody, V domains shown)
VH: EVQLVESGGGLVQPGGSLRLSCAASGFTFSTYAMNWVRQAPGKGLEWVGRIRSKYNNYATYYADSVKGRFTISRDDSKNSLYLQMNSLKTEDTAVYYCVRHKNFGNSYVTWFAYWGQGTLVTVSS
VL: QAVVTQEPSLTVSPGGTVTLTCRSSTGAVTTSNYANWVQQKPGQAPRGLIGGTNKRAPWTPARFSGSLLGGKAALTITGAQAEDEADYYCALWYSNLWVFGGGTKLTVLG
notes: also called anti-human CD3 mAb 2 Fast
B2: 5T4 mAb 2/CD3 mAb 2/CD8 mAb 1 Tri-Specific Binding Molecule (other)
chain 1: DVLMTQTPLSLPVSLGDQASISCRSSQSIVYSNGNTYLEWYLQKPGQSPKLLIYKVSNRFSGVPDRFSGSGSGTDFTLKISRVEAEDLGVYYCFQGSHVPFTFGSGTKLEIKGGGSGGGGEVQLVESGGGLVQPGGSLRLSCAASGFTFSTYAMNWVRQAPGKGLEWVGRIRSKYNNYATYYADSVKGRFTISRDDSKNSLYLQMNSLKTEDTAVYYCVRHGNFGNSYVSWFAYWGQGTLVTVSSGGCGGGEVAALEKEVAALEKEVAALEKEVAALEKGGGDKTHTCPPCPAPEAAGGPSVFLFPPKPKDTLMISRTPEVTCVVVDVSHEDPEVKFNWYVDGVEVHNAKTKPREEQYNSTYRVVSVLTVLHQDWLNGKEYKCKVSNKALPAPIEKTISKAKGQPREPQVYTLPPSREEMTKNQVSLWCLVKGFYPSDIAVEWESNGQPENNYKTTPPVLDSDGSFFLYSKLTVDKSRWQQGNVFSCSVMHEALHNHYTQKSLSLSPGK
chain 2: QAVVTQEPSLTVSPGGTVTLTCRSSTGAVTTSNYANWVQQKPGQAPRGLIGGTNKRAPWTPARFSGSLLGGKAALTITGAQAEDEADYYCALWYSNLWVFGGGTKLTVLGGGGSGGGGQVQLQQPGAELVKPGASVKMSCKASGYTFTSYWITWVKQRPGQGLEWIGDIYPGSGRANYNEKFKSKATLTVDTSSSTAYMQLSSLTSEDSAVYNCARYGPLFTTVVDPNSYAMDYWGQGTSVTVSSGGCGGGKVAALKEKVAALKEKVAALKEKVAALKE
heavy: EVQLQQSGAELVKPGASVKLSCTASGFNIKDTYIHFVRQRPEQGLEWIGRIDPANDNTLYASKFQGKATITADTSSNTAYMHLCSLTSGDTAVYYCGRGYGYYVFDHWGQGTTLTVSSASTKGPSVFPLAPSSKSTSGGTAALGCLVKDYFPEPVTVSWNSGALTSGVHTFPAVLQSSGLYSLSSVVTVPSSSLGTQTYICNVNHKPSNTKVDKRVEPKSCDKTHTCPPCPAPEAAGGPSVFLFPPKPKDTLMISRTPEVTCVVVDVSHEDPEVKFNWYVDGVEVHNAKTKPREEQYNSTYRVVSVLTVLHQDWLNGKEYKCKVSNKALPAPIEKTISKAKGQPREPQVYTLPPSREEMTKNQVSLSCAVKGFYPSDIAVEWESNGQPENNYKTTPPVLDSDGSFFLVSKLTVDKSRWQQGNVFSCSVMHEALHNRYTQKSLSLSPGK
light: DVQINQSPSFLAASPGETITINCRTSRSISQYLAWYQEKPGKTNKLLIYSGSTLQSGIPSRFSGSGSGTDFTLTISGLEPEDFAMYYCQQHNENPLTFGAGTKLELRRTVAAPSVFIFPPSDEQLKSGTASVVCLLNNFYPREAKVQWKVDNALQSGNSQESVTEQDSKDSTYSLSSTLTLSKADYEKHKVYACEVTHQGLSSPVTKSFNRGEC
B3: 5T4 mAb 2/CD3 mAb 2/CD8 mAb 2 Tri-Specific Binding Molecule (other)
chain 1: B2 chain 1
chain 2: B2 chain 2
heavy: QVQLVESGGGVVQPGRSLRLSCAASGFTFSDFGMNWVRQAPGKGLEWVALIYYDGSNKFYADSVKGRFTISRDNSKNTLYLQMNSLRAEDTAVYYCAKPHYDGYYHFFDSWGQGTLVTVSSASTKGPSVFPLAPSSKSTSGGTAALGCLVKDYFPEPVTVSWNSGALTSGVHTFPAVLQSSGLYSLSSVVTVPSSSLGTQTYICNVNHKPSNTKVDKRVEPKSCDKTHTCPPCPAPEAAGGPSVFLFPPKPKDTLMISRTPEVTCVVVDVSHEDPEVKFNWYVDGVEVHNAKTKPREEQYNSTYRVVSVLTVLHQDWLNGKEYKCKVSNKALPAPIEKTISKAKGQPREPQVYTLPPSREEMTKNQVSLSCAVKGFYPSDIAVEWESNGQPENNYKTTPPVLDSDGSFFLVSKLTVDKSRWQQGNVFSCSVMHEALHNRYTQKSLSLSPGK
light: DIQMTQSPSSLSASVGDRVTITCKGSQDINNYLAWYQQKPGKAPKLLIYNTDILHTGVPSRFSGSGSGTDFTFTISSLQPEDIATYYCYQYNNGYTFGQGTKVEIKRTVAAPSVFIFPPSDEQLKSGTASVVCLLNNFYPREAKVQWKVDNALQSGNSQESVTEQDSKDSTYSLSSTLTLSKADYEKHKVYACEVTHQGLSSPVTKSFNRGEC
B4: HIV mAb 2/CD3 mAb 2/CD8 mAb 1 Tri-Specific Binding Molecule (other)
chain 1: QSALTQPPSASGSPGQSVTISCTGTSSDVGGYNYVSWYQHHPGKAPKLIISEVNNRPSGVPDRFSGSKSGNTASLTVSGLQAEDEAEYYCSSYTDIHNFVFGGGTKLTVLGGGSGGGGEVQLVESGGGLVQPGGSLRLSCAASGFTFSTYAMNWVRQAPGKGLEWVGRIRSKYNNYATYYADSVKGRFTISRDDSKNSLYLQMNSLKTEDTAVYYCVRHGNFGNSYVSWFAYWGQGTLVTVSSASTKGEVAACEKEVAALEKEVAALEKEVAALEKGGGDKTHTCPPCPAPEAAGGPSVFLFPPKPKDTLMISRTPEVTCVVVDVSHEDPEVKFNWYVDGVEVHNAKTKPREEQYNSTYRVVSVLTVLHQDWLNGKEYKCKVSNKALPAPIEKTISKAKGQPREPQVYTLPPSREEMTKNQVSLWCLVKGFYPSDIAVEWESNGQPENNYKTTPPVLDSDGSFFLYSKLTVDKSRWQQGNVFSCSVMHEALHNHYTQKSLSLSPGK
chain 2: QAVVTQEPSLTVSPGGTVTLTCRSSTGAVTTSNYANWVQQKPGQAPRGLIGGTNKRAPWTPARFSGSLLGGKAALTITGAQAEDEADYYCALWYSNLWVFGGGTKLTVLGGGGSGGGGQVQLQESGPGLVKPSQTLSLSCTVSGGSSSSGAHYWSWIRQYPGKGLEWIGYIHYSGNTYYNPSLKSRITISQHTSENQFSLKLNSVTVADTAVYYCARGTRLRTLRNAFDIWGQGTLVTVSSASTKGKVAACKEKVAALKEKVAALKEKVAALKE
heavy: EVQLQQSGAELVKPGASVKLSCTASGFNIKDTYIHFVRQRPEQGLEWIGRIDPANDNTLYASKFQGKATITADTSSNTAYMHLCSLTSGDTAVYYCGRGYGYYVFDHWGQGTTLTVSSASTKGPSVFPLAPSSKSTSGGTAALGCLVKDYFPEPVTVSWNSGALTSGVHTFPAVLQSSGLYSLSSVVTVPSSSLGTQTYICNVNHKPSNTKVDKRVEPKSCDKTHTCPPCPAPEAAGGPSVFLFPPKPKDTLMISRTPEVTCVVVDVSHEDPEVKFNWYVDGVEVHNAKTKPREEQYNSTYRVVSVLTVLHQDWLNGKEYKCKVSNKALPAPIEKTISKAKGQPREPQVYTLPPSREEMTKNQVSLSCAVKGFYPSDIAVEWESNGQPENNYKTTPPVLDSDGSFFLVSKLTVDKSRWQQGNVFSCSVMHEALHNRYTQKSLSLSPG
light: B2 light
B5: HIV mAb 1/CD3 mAb 2/CD8 mAb 1 Tri-Specific Binding Molecule (other)
chain 1: DIVMTQSPDSLAVSPGERATIHCKSSQTLLYSSNNRHSIAWYQQRPGQPPKLLLYWASMRLSGVPDRFSGSGSGTDFTLTINNLQAEDVAIYYCHQYSSHPPTFGHGTRVEIKGGGSGGGGEVQLVESGGGLVQPGGSLRLSCAASGFTFSTYAMNWVRQAPGKGLEWVGRIRSKYNNYATYYADSVKGRFTISRDDSKNSLYLQMNSLKTEDTAVYYCVRHGNFGNSYVSWFAYWGQGTLVTVSSASTKGEVAACEKEVAALEKEVAALEKEVAALEKGGGDKTHTCPPCPAPEAAGGPSVFLFPPKPKDTLMISRTPEVTCVVVDVSHEDPEVKFNWYVDGVEVHNAKTKPREEQYNSTYRVVSVLTVLHQDWLNGKEYKCKVSNKALPAPIEKTISKAKGQPREPQVYTLPPSREEMTKNQVSLWCLVKGFYPSDIAVEWESNGQPENNYKTTPPVLDSDGSFFLYSKLTVDKSRWQQGNVFSCSVMHEALHNHYTQKSLSLSPGK
chain 2: QAVVTQEPSLTVSPGGTVTLTCRSSTGAVTTSNYANWVQQKPGQAPRGLIGGTNKRAPWTPARFSGSLLGGKAALTITGAQAEDEADYYCALWYSNLWVFGGGTKLTVLGGGGSGGGGQVQLVQSGGGVFKPGGSLRLSCEASGFTFTEYYMTWVRQAPGKGLEWLAYISKNGEYSKYSPSSNGRFTISRDNAKNSVFLQLDRLSADDTAVYYCARADGLTYFSELLQYIFDLWGQGARVTVSSASTKGKVAACKEKVAALKEKVAALKEKVAALKE
heavy: B4 heavy
light: B2 light

Tests used:
human CD3 = human CD3 (human, UniProt P07766 23-126); assay: binding kinetics sensorgram (RU against time), panel labelled hCD3
[1] = biological target: T1, 5T4 on JIMT-1 target cells; assay: cell-based or functional assay
[2] = biological target: T2, CD8 on human T cells (PBMC) (human, UniProt P01732 22-235); assay: flow cytometry on human PBMC, CD5+/CD4- gated cells (bear CD8 and CD3), detection anti-human Fc (MFI)
T2 construct: whole, on cells; The CD8+ (CD5+ CD4-) cells also carry CD3; also called CD5+ CD4- gated PBMC; CD8+ T cells

[3] = biological target: HIV env on Jurkat 522 FY cells (HIV); assay: cell-based or functional assay
[4] = biological target: HIV env on Jurkat 522 FY cells (HIV); assay: cell-based or functional assay; remark: listed apart in the source
[5] = biological target: T2, CD8 on human T cells (PBMC); assay: flow cytometry on human PBMC, CD5+/CD4- gated cells (bear CD8 and CD3), detection anti-human Fc (MFI); remark: listed apart in the source
Protocol: Human blood was lysed with ACK lysing buffer, washed 2× with PBS and re-suspended in FACS buffer contained 10% Human AB serum and incubated at room temperature for 20 minutes. Thereafter, the cells were pelleted by centrifugation and re-suspended (4×10⁶ cells/mL) in FACS buffer. 50 μL of serial titrated Tri-Specific Binding Molecules were added into wells of a 96-well deep plate. 50 μL of the cells (4×10⁶ cells/mL) well-mixed cells in FACS buffer containing 0.01% sodium azide were then added into corresponding wells and mixed thoroughly using a pipette. The plate was incubated in the dark for about 45 minutes at 2-8° C. At the end of incubation, the cells were washed twice by adding 300 μL of FACS buffer to each well, the plate was centrifuged at 1,200 rpm for 5 minutes, and the supernatant was discarded. The cell pellets were re-suspended in 100 μL mixture of goat anti-Human IgG Fcγ-PE, CD5-APC and CD4-PerCP5.5 prepared in FACS buffer containing 0.01% sodium azide, and the cells were incubated in the dark for about 45 minutes at 2-8° C. At the end of the incubation, the cells were washed, re-suspended with FACS buffer, and analyzed with a BD Caliber flow cytometer.

T2 sequence (P01732 22-235): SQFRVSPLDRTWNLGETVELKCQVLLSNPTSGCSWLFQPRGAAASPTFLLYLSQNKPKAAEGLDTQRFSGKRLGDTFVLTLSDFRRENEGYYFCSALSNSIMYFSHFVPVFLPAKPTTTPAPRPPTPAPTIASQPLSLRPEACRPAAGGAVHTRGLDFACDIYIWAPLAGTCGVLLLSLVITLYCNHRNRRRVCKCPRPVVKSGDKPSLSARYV
Chain of human CD3 (P07766 23-126): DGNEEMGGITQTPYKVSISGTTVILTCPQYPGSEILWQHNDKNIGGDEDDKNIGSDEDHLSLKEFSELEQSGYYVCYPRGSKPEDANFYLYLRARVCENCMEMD

Binder	Kd (human CD3) [pM]	EC50 (nM) of killing, CD4+ effector cells, JIMT1-luc target cells, E:T 5:1 [1] [nM]	EC50 (nM) of killing, CD8+ effector cells, JIMT1-luc target cells, E:T 5:1 [1] [nM]	EC50 (nM) of killing, PanT effector cells, JIMT1-luc target cells, E:T 5:1 [1] [nM]	EC50 (read off the curve) [2] [pM]	EC50, nM, % cytotoxicity (LDH), Jurkat Cells 522FY, CD4 effector cells [3] [nM]	EC50, nM, % cytotoxicity (LDH), Jurkat Cells 522FY, CD8 effector cells [3] [nM]	EC50, nM, % cytotoxicity (LDH), Jurkat Cells 522FY, Pan T effector cells [3] [nM]	EC50 nM, % cytotoxicity (LDH), Jurkat Cells 522FY, E/T = 5:1 [4] [nM]	EC50 nM, % cytotoxicity (LDH), Jurkat Cells 522FY, E/T = 10:1 [4] [nM]	EC50 (read off the curve) [5] [pM]
B1	13900										
B2		0.0435	0.0013	0.002	~2000						
B3		0.0336	0.0015	0.0018	~2000						
B4						0.45	0.0004	0.0015	0.00032	0.00026	~600
B5						0.36	0.00781	0.044	0.00019	0.00029	~800
